Laboratory results: US20030228627

Molecular target: Full-length human Flag-tagged p53 (native, unacetylated) (UniProt P04637)

Substance: Full-length human histidine-tagged p300
- acetylation of p53 by p300 in the presence of 3H-acetyl CoA (electrophoresis, fluorography): p300 efficiently acetylated p53
